From US20150011431A1 (Scripps Research, published 2015)
Numbering of substitutions follows the chain as printed. Names and notes keep the numbering of the source.

T1: CXCR1 (UniProt P25024 1-350, limits assumed)
T1 construct: whole, on cells; DiscoveRx cells engineered with a luminescent reporter enzyme for beta-arrestin recruitment; also called CXCR1-U2OS; U2OS-CXCR1
T1 sequence (looked up): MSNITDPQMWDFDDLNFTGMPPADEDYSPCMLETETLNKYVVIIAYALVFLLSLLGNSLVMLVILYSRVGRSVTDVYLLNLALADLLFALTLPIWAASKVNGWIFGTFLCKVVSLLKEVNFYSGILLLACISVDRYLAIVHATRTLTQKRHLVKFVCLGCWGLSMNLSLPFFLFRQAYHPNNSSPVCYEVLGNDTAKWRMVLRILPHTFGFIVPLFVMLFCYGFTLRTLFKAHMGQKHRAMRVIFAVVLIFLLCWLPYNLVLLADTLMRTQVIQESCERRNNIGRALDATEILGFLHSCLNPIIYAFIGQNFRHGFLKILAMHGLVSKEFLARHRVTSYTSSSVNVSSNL

B1: BLV1H12 IgG (antibody)
VH: QVQLRESGPSLVKPSQTLSLTCTASGFSLSDKAVGWVRQAPGKALEWLGSIDTGGNTGYNPGLKSRLSITKDNSKSQVSLSVSSVTTEDSATYYCTSVHQETKKYQSCPDGYRERSDCSNRPACGTSDCCRVSVFGNCLTTLPVSYSYTYNYEWHVDVWGQGLLVTVSS
light: not shown
notes: also called ULcowV
B2: IgG with VH4-34+CDR3-IL8 (antibody)
VH: QVQLQQWGAGLLKPSETLSLTCAVYGGSFSGYYWSWIRQPPGKGLEWIGEINHSGSTNYNPSLKSRVTISVDTSKNQFSLKLSSVTAADTAVYYCTSVHQETKKYQSPRSAKELRCQCIKTYSKPFHPKFIKELRVIESGPHCANTEIIVKLSDGRELCLDPKENWVQRVVEKFLKRAENSGSGSYTYNYEWHVDVWGQGLLVTVSSAS
light: not shown
notes: IgG; VH cloned before human IgG1 CH1-CH2-CH3 in HC pFuse; cell culture supernatant; also called VH4-34 BLVCDR3IL8
B3: IgG with VH4-34+CDR3-IL8_CDR2 Cow and BLV1H12 light chain (antibody)
VH: B2 VH with I48L, E50S, N52D, H53T, S54G, S56N, N58G
VL: QAVLNQPSSVSGSLGQRVSITCSGSSSNVGNGYVSWYQLIPGSAPRTLIYGDTSRASGVPDRFSGSRSGNTATLTISSLQAEDEADYFCASAEDSSSNAVFGSGTTLTVLGQPKSPPSVTLFPPSTEELNGNKATLVCLISDFYPGSVTVVWKADGSTITRNVETTRASKQSNSKYAASSYLSLTSSDWKSKGSYSCEVTHEGSTVTKTVKPSECS
notes: IgG, human IgG1 CH1-CH2-CH3; also called VH4-34 + CDR3-IL8 + Cow CDR2
B4: IgG with VH4-34+CDR3-IL8_CDR2 E50S and BLV1H12 light chain (antibody)
VH: B2 VH with E50S
VL: B3 VL
notes: IgG, human IgG1 CH1-CH2-CH3; also called VH4-34 + CDR3-IL8 + E50S
B5: IgG with VH4-34+CDR3-IL8_CDR1 Cow_CDR2 Cow and light chain V1-51 (antibody)
heavy: not shown
light: QSVLTQPPSVSAAPGQKVTISCSGSSSNIGNNYVSWYQQLPGTAPKLLIYDNNKRPSGIPDRFSGSKSGTSATLGITGLQTGDEADYYCASAEDSSSNAVFGSGTTLTVLGQPKAAPSVTLFPPSSEELQANKATLVCLISDFYPGAVTVAWKADSSPVKAGVETTTPSKQSNNKYAASSYLSLTPEQWKSHRSYSCQVTHEGSTVEKTVAPTECS
notes: IgG, human IgG1 CH1-CH2-CH3; supernatant; also called Cow / Cow / V1-51; VH4-34 CDR3-IL8 CDR1-Cow & CDR2-Cow with V1-51

How the values were obtained:
[1] = biological target: T1, CXCR1; assay: flow cytometry, IgG-containing supernatant on CXCR1-U2OS cells, fluorescent anti-human Fc
Experimental: (§1) In an exemplary method, BLV1H12 IgG comprising a CDR3 with an IL-8 insert (e.g., the IL-8 sequence replaced a portion of the CDR3) was evaluated for binding to CXCR1 expressing cells by flow cytometry. Briefly, a cell line expressing functionally validated CXCR1 derived from U2OS cells was obtained from DiscoveRx and cultured per manufacturer's instructions (Cat#93-0226C3, DiscoveRx Corporation, Freemont, Calif.). The parental cell line U2OS was obtained from ATCC and cultured under the same conditions as the CXCR1 cells. Cell culture supernatants were then tested for binding to cells by flow cytometry. The adherent U2OS or CXCR1-U2OS cells were dissociated with Accutase (Innovative Cell Technologies, Inc., San Diego, Calif.), neutralized with an equal volume of media containing 10% serum, centrifuged at 1000 g, and resuspended in PBS with 2% BSA. Next, cells were dispensed into microtiter plates to achieve between 30,000 to 300,000 cells per well, centrifuged again, and resuspended in cell culture supernatant containing expressed IgG, or a dilution of IgG-containing cell culture supernatant. A fluorescent-conjugated anti-Human Fc antibody was used to detect binding of the expressed antibody to cells.
(§2) Additionally, the human germline CDR3-IL8 IgGs described in Example 5 were evaluated for binding to CXCR1 expressing cells by flow cytometry as described above. IgG binding to CXCR1-U2OS cells is indicated by higher fluorescence values, but non-specific binding to U2OS parental cells is also detectable.

[2] = biological target: T1, CXCR1; assay: flow cytometry; fluorescence on CXCR1-U2OS cells over fluorescence on parental U2OS cells
Experimental: as §1, §2

[3] = biological target: T1, CXCR1; assay: as above; remark: listed apart in the source
Experimental: as §1
In an exemplary method, certain residues in VH4-34 CDR1 and/or CDR2 were substituted with corresponding CDR1 and/or CDR2 residues from BLV1H12. Briefly, the pFuse vector encoding heavy chain VH4-34 CDR3-IL8 was modified by overlap PCR to replace all of CDR1 with sequence from BLV1H12 (VH4-34+CDR3-IL8_CDR1 Cow, SEQ ID NO: 432) or all of CDR2 with sequence from BLV1 H12 (VH4-34+CDR3-IL8_CDR2 Cow, SEQ ID NO: 433).

[4] = biological target: T1, CXCR1; assay: as above; remark: listed apart in the source
Experimental: as §1
Alternatively, using the BLV1H12 light chain variable region as a guide, the human germline sequences identified with closest homology were V1-47 and V1-51.

[5] = biological target: T1, CXCR1; assay: flow cytometry with 2 ug/ml heparin sulfate, IgG normalized to 10 nM; CXCR1-U2OS against parental U2OS cells
Experimental: Cell culture supernatants were then tested for binding to cells by flow cytometry. The adherent U2OS or CXCR1-U2OS cells were dissociated with Accutase (Innovative Cell Technologies, Inc., San Diego, Calif.), neutralized with an equal volume of media containing 10% serum, centrifuged at 1000 g, and resuspended in PBS with 2% BSA. Next, cells were dispensed into microtiter plates to achieve between 30,000 to 300,000 cells per well, centrifuged again, and resuspended in cell culture supernatant containing expressed IgG, or a dilution of IgG-containing cell culture supernatant. A fluorescent-conjugated anti-Human Fc antibody was used to detect binding of the expressed antibody to cells.
In an exemplary method, variants of V1-51 were made by overlap PCR and subcloned into pFuse vector for expression as described in Example 4. […] These V1-51 variants were paired with heavy chains encoding VH4-34+CDR3-IL8 (SEQ ID NO: 430), VH4-34+CDR3-IL8_CDR1 Cow (SEQ ID NO: 432), VH4-34+CDR3-IL8_CDR2 Cow (SEQ ID NO: 433), or VH4-34+CDR3-IL8_CDR1 Cow CDR2 Cow, (SEQ ID NO: 436). Transfections and ELISA were carried out as described above, and flow cytometry was used to evaluate CXCR1 binding specificity as previously described, with the modification that cells were resuspended in 2% BSA in PBS plus 2 ug/ml Heparin sulfate, and IgGs were normalized to 10 nM during incubation on cells.

Binder	median fluorescence on CXCR1-U2OS [1] [AFU]	Ratio of CXCR1/Parental [2]	FACS CXCR1/Parental Ratio [3]	CXCR1/Parental Ratio [4]	CXCR1 specificity [5]
B1	9	1.9	1.9		
B2	648	9.3	9.3		
B3			8		
B4			4		
B5				3.1	11.1
